Patent publication US20240141038A1 (SHANGHAI QILU PHARMACEUTICAL RESEARCH AND DEVELOPMENT CENTRE, published 2024)

B1: NKp46-PC16 VHH (his and c-Myc labels) (VHH)
VHH: DVQLVESGGGLVQPGGSLRLSCAISGFTFSIVSMSWVRQAPGKGPERVSWINGDSSNTSYADSVKGRFTISRDNARNMLYLQMNSLKSEDTARYYCTTQNSHYDIRFGYWGQGTQVTVSS
notes: IPTG-induced E. coli supernatant used in the screening ELISA; also called NKp46-PC16 clone supernatant; not shown: his and c-Myc labels
B2: NKp46-PC12 VHH (his and c-Myc labels) (VHH)
VHH: QVQLVESGGGSVQTGGSLRLSCTAPGFTTDSCGMDWYRQAAGKQREWVSRIRPDGRTDYVESVKGRFTISEDKAKYTVYLQMNSLKPEDTAMYSCTTWGLCTAKFRWGQGTQVTVSS
notes: IPTG-induced E. coli supernatant used in the screening ELISA; also called NKp46-PC12 clone supernatant; not shown: his and c-Myc labels
B3: NKp46-PC8 VHH (his and c-Myc labels) (VHH)
VHH: EVQLVESGGGSVQAGGSLRLSCAVSRGSMASTGCMAWFRQTPGKEREAVAIINISGTTRYTDSVKGRFTIAQDSAKNTLTLQMNSLKPEDTGMYYCAATQNPRTVGRGYCTGDYFQVGGGGYSFWGQGTQVTVSS
notes: IPTG-induced E. coli supernatant used in the screening ELISA; also called NKp46-PC8 clone supernatant; not shown: his and c-Myc labels
B4: NKp46-PA36 VHH (his and c-Myc labels) (VHH)
VHH: QVQLVESGGGLVQAGGSLRLSCAASGRSFSRYAMGWFRQAPGKERDFVAAISSSGDPTYYADSVKGRFTISRVNAKNTVYLQMNSVNPGDTAVYYCAAGLTARDTTVVVHPNGYSYWGQGTQVTVSS
notes: IPTG-induced E. coli supernatant used in the screening ELISA; also called NKp46-PA36 clone supernatant; not shown: his and c-Myc labels
B5: NKp46-PA31 VHH (his and c-Myc labels) (VHH)
VHH: DVQLVESGGGLVQAGDSLRLSCAVSGRTFSRLPMGWFRQGPGKDREFVAAISWSSSTTYYADSVKGRFFISRDNAKNTAYLQMNNLRLEDTAVYYCAAVGGSLDYSATVVYTAARAYADWGQGTLVTVSS
notes: IPTG-induced E. coli supernatant used in the screening ELISA; also called NKp46-PA31 clone supernatant; not shown: his and c-Myc labels
B6: NKp46-PA45 VHH (his and c-Myc labels) (VHH)
VHH: QVQLVESGGGLVQAGGSLRLLCAASGRTFSRLPMAWFRQGPGKDREFVAAISWSGGSTYYADSMKGRFTISRDNAKNTAYLQMNSLRLEDTAVYYCAAVGDSAPYSATIVYTDARAYAYWGQGTQVTVSS
notes: IPTG-induced E. coli supernatant used in the screening ELISA; also called NKp46-PA45 clone supernatant; not shown: his and c-Myc labels
B7: NKp46-PC4 VHH (his and c-Myc labels) (VHH)
VHH: EVQLVESGGGSVQAGGSLRLSCTVSGYTGTIEYMGWGWFRQAPGKEREGVAYINTGGGTSVYDDSVKGRFTISKDDVNLTVYLQMNSLKPEDTAIYYCATGSFFGIWYKVPATQYFHYWGQGTQVTVSS
notes: IPTG-induced E. coli supernatant used in the screening ELISA; also called NKp46-PC4 clone supernatant; not shown: his and c-Myc labels
B8: NKp46-PC1 VHH (his and c-Myc labels) (VHH)
VHH: QVQLVESGGGSVQAGGSLTLSCATSGYTYRTDCMGWFRQAPGKEREGLATIYTSDGRTDYANSVKGRFTISQDNAKNTLYLHMNNLKPEDTAIYYCAADPQYGGVCPSGGWNYWGQGTQVTVSS
notes: IPTG-induced E. coli supernatant used in the screening ELISA; also called NKp46-PC1 clone supernatant; not shown: his and c-Myc labels
B9: NKp46-PC7 VHH (his and c-Myc labels) (VHH)
VHH: EVQLVESGGGSVQAGGSLRLSCAASGYTYRTDCMGWFRQAPGKEREGLATIYTSDGRTAYADSVKGRFTISQDNAKNTLYLDMNTLKPEDTAMYYCAADLQYGGSCPSGGWKYWGQGTLVTVSS
notes: IPTG-induced E. coli supernatant used in the screening ELISA; also called NKp46-PC7 clone supernatant; not shown: his and c-Myc labels
B10: NKp46-PA40 VHH (his and c-Myc labels) (VHH)
VHH: QVQLVESGGGLVQAGGSLRLSCAASGRTFSRYSMGWFRQAPGKEREFVAAISSSGDVTHYADSAKGRFIISRDNAKNTVSLQVNSVNLEDTAVYYCAASLTARATTVTVHPNGYNYWGQGTQVTVSS
notes: IPTG-induced E. coli supernatant used in the screening ELISA; also called NKp46-PA40 clone supernatant; not shown: his and c-Myc labels
B11: NKp46-PA69 VHH (his and c-Myc labels) (VHH)
VHH: QVQLVESGGGLIQAGGSLRLSCVASERSLTLYAMGWFRQAPGLEREFVAGISRTGDTTYSPDSVKGRFTISRDNAKNVLYLQMNSLKPDDTAVYYCAASATYSATNIYTHQRAYGDWGQGTQVTVSS
notes: IPTG-induced E. coli supernatant used in the screening ELISA; also called NKp46-PA69 clone supernatant; not shown: his and c-Myc labels
B12: NKp46-PA34 VHH (his and c-Myc labels) (VHH)
VHH: QVQLVESGGGLVQTGGSLRLSCAASGSTSSFYRMGWFRQAPGKEREAVARISSSAGLIYYVDSVKGRFTISRAGAKNTVYLQMNSLKPEDTAVYYCAADRHGTRWDYWGQGTQVTVSS
notes: IPTG-induced E. coli supernatant used in the screening ELISA; also called NKp46-PA34 clone supernatant; not shown: his and c-Myc labels
B13: NKp46-PC11 VHH (his and c-Myc labels) (VHH)
VHH: DVQLVESGGGSVQAGGSLRLSCAPSPYSANSFSMAWFRQVPGKEREGIACIQAESGSTNVAPSVKGRFSISQDNAKNTLYLQMNNLKPEDTAMYYCAAFKRNVGGCELRPEHWRFWGQGTLVTVSS
notes: IPTG-induced E. coli supernatant used in the screening ELISA; also called NKp46-PC11 clone supernatant; not shown: his and c-Myc labels
B14: NKp46-PC6 VHH (his and c-Myc labels) (VHH)
VHH: DVQLVESGGGSVQAGGSLRLSCAASGYRSRHYCMGWFRQFPGKERERVALINTGGPTTFYADFVEGRFTISLDNAKNTLSLQMNSLKPEDTAMYYCAAGPPSSDSGSGCYVPEYMYNYWGQGTQVTVSS
notes: IPTG-induced E. coli supernatant used in the screening ELISA; also called NKp46-PC6 clone supernatant; not shown: his and c-Myc labels
B15: NKp46-PC13 VHH (his and c-Myc labels) (VHH)
VHH: DVQLVESGGGSVQAGGSLRLSCAASGYTRSIYYMGWFRQAPGKEREGVAVMHTGGGSTYYTDSVKGRFTISQDNAKNTVYLQMNSLKPEDTAMYYCAASKYLLAFGGVEWILRPAGGWDYWAQGTQVTVSS
notes: IPTG-induced E. coli supernatant used in the screening ELISA; also called NKp46-PC13 clone supernatant; not shown: his and c-Myc labels
B16: NKp46-PC9 VHH (his and c-Myc labels) (VHH)
VHH: QVQLVESGGGSVQAGGSLRLSCAASGYTYRRYCMAWFRQGPGKEREGVACLDRDGSTTYADSVKGRFTISRDNANDTLYLQMNSLKPEDTALYRCAAAQPGDCWGRRYGFNTWGQGTLVTVSS
notes: IPTG-induced E. coli supernatant used in the screening ELISA; also called NKp46-PC9 clone supernatant; not shown: his and c-Myc labels
B17: NKp46-PA63 VHH (his and c-Myc labels) (VHH, not shown: small tags and cut ends)
VHH: EVQLVESGGGLVQPGGSLRLSCAASGRTSTSYAMGWFRQAPGKEREFVAAINRSGDFPYYADSVKGRFTIFRDNAKNTVYLQMSSVKPEDTGVYFCAAAPRAPATQVVISAFGYEYWGQGTQVTVSS
notes: also called NKp46-PA63 clone supernatant
B18: NKp46-PC3 VHH (his and c-Myc labels) (VHH)
VHH: DVQLVESGGGSVEAGGSLRLSCAASGYRQRTMGWFRQAPGKAREGVACIYTGPTTTFTDYADSVKGRFTITQDNAKNTVYLQMNSLKPEDTAMYYCAANLAYPLTIIPDTRWGQGTQVTVSS
notes: IPTG-induced E. coli supernatant used in the screening ELISA; also called NKp46-PC3 clone supernatant; not shown: his and c-Myc labels

Biological target: T1, Human NKp46 antigen for immunization, screening, and testing (Kactus, NKP-HM146) (human, UniProt O76036 22-255)
T1 construct: Bought protein; also called human NKp46 antigen protein; human NKp46 protein
Assay: ELISA, coated antigen, VHH supernatant, anti-Myc HRP
Experimental: (§1) In order to obtain positive antibodies that can cross-bind to human NKp46 and cynomolgus monkey NKp46, the above libraries were amplified and added into M13K07 helper phage and assembled into bacteriophages. 1×10¹² pfu of immune camel antibody library and immune alpaca antibody library were added thereto, and the phages were incubated with biotinylated human NKp46 protein (8 μg/mL) bound to magnetic beads for 1 h at room temperature. After washing off the unbound bacteriophages with 0.05% PBST, the phages specifically bound to NKp46 were eluted with […] triethylamine, and after gradient dilution of the bacteriophages above, E. coli SS320 in the logarithmic growth phase were infected. After being cultured overnight at 37° C. on plates containing ampicillin, single-clone was picked for IPTG-induced expression, and the supernatant was used for ELISA assay. ELISA plates were coated with […] human NKp46 antigen or cynomolgus monkey NKp46 antigen overnight at 4° C., then washed 3 times with 0.05% PBST and blocked with 5% skim milk at room temperature for 1 h, and washed 3 times with 0.05% PBST. Then 30 µL of induced supernatant was then added into per well, medium were added to negative control wells, the ELISA plates were incubated at room temperature for 1 h, and finally detected with anti-Myc HRP (VHH with his and c-Myc labels were expressed by the induction of IPTG. Sequence clones that had OD450 values of greater than 1.0 for binding to human NKp46 and cynomolgus monkey NKp46 as determined by ELISA, and of which the ratio of OD450 values to that of negative control were greater than 3 were sequenced, thereby obtaining amino acid sequences of 30 variable regions of heavy chain antibodies disclosed in the present disclosure, as shown in Table 2.

T1 sequence (O76036 other isoform, or with tags, fused parts or gaps limits assumed): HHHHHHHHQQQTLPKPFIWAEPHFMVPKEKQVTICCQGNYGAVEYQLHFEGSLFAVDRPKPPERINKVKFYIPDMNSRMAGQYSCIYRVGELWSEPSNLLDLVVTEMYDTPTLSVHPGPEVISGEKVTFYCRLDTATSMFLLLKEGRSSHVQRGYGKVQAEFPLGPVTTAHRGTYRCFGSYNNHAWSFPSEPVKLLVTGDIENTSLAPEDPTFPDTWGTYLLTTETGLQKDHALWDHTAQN

Row | OD450 | ratio of OD450 to negative control | Binder
1 | > 1 | > 3 | B1
2 | > 1 | > 3 | B2
3 | > 1 | > 3 | B3
4 | > 1 | > 3 | B4
5 | > 1 | > 3 | B5
6 | > 1 | > 3 | B6
7 | > 1 | > 3 | B7
8 | > 1 | > 3 | B8
9 | > 1 | > 3 | B9
10 | > 1 | > 3 | B10
11 | > 1 | > 3 | B11
12 | > 1 | > 3 | B12
13 | > 1 | > 3 | B13
14 | > 1 | > 3 | B14
15 | > 1 | > 3 | B15
16 | > 1 | > 3 | B16
17 | > 1 | > 3 | B17
18 | > 1 | > 3 | B18

Biological target: T2, Cynomolgus monkey NKp46 for immunization, screening, and testing (Kactus, NKP-CM146) (cynomolgus monkey, UniProt Q95JB9 22-254)
T2 construct: Bought protein; also called monkey NKp46 antigen protein; cynomolgus monkey NKp46 antigen
Assay: as above
Experimental: as §1

T2 sequence (Q95JB9 other isoform, or with tags, fused parts or gaps limits assumed): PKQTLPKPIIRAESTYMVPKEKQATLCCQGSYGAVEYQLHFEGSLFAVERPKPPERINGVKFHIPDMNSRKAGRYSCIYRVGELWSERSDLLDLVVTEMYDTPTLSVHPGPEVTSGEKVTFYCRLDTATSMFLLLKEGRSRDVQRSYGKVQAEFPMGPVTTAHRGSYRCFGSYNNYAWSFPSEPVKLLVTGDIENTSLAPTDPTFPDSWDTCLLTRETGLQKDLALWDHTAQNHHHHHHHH

Row | OD450 | ratio of OD450 to negative control | Binder
19 | > 1 | > 3 | B1
20 | > 1 | > 3 | B2
21 | > 1 | > 3 | B3
22 | > 1 | > 3 | B4
23 | > 1 | > 3 | B5
24 | > 1 | > 3 | B6
25 | > 1 | > 3 | B7
26 | > 1 | > 3 | B8
27 | > 1 | > 3 | B9
28 | > 1 | > 3 | B10
29 | > 1 | > 3 | B11
30 | > 1 | > 3 | B12
31 | > 1 | > 3 | B13
32 | > 1 | > 3 | B14
33 | > 1 | > 3 | B15
34 | > 1 | > 3 | B16
35 | > 1 | > 3 | B17
36 | > 1 | > 3 | B18
